US20160347847A1 (AGENUS, published 2016)

Experiments:
[1] = target: T1, FcγRIIA with the high affinity 131 H/H polymorphism on Jurkat NFAT-luciferase reporter cells (UniProt P12318 34-317, limits assumed); assay: cell-based or functional assay
T1 sequence (looked up): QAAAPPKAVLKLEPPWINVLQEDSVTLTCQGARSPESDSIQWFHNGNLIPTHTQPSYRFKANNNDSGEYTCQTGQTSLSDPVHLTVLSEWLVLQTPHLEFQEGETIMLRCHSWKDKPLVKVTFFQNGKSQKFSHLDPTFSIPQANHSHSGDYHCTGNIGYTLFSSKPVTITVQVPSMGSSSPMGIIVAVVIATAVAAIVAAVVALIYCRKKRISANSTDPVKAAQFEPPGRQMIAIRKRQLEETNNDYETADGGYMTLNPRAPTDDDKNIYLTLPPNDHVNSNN

[2] = target: T2, W58A; assay: flow cytometry on 1624-5 cells expressing the human OX40 alanine mutant; pab1928 at 1.1 and 0.4 µg/ml
T2 construct: also called human OX40 alanine mutant W58A on 1624-5 cells
T2 receptor chain: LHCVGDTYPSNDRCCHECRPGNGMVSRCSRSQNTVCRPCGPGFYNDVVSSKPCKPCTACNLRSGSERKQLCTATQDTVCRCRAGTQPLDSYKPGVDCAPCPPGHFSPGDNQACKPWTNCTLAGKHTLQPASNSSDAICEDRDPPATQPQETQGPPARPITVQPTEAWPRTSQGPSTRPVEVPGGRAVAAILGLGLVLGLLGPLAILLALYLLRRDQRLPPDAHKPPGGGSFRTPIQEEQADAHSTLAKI
Description: (§1) This anti-OX40 antibody non-reactive cell population was subjected to a final, single-cell sorting step. […] The polyclonal anti-OX40 antibody (AF3388, R&D systems) conjugated with APC was diluted at 1:2000. Fc receptor block (1:200; BD Cat no. 553142) was added, and the samples were incubated for 20 minutes at 4° C. […] The cells were then washed and acquired using a flow cytometer (BD Biosciences).

[3] = target: T3, N60A; assay: as above
T3 construct: also called human OX40 alanine mutant N60A on 1624-5 cells
T3 receptor chain: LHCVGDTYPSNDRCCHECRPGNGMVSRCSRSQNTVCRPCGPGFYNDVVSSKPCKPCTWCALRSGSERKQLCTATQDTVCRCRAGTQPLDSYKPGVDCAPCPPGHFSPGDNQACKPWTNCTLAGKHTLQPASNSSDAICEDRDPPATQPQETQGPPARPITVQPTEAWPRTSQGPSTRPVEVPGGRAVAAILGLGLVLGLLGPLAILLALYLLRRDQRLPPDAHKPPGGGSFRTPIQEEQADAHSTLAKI
Description: as §1

[4] = target: T4, L88A; assay: as above
T4 construct: also called human OX40 alanine mutant L88A on 1624-5 cells
T4 receptor chain: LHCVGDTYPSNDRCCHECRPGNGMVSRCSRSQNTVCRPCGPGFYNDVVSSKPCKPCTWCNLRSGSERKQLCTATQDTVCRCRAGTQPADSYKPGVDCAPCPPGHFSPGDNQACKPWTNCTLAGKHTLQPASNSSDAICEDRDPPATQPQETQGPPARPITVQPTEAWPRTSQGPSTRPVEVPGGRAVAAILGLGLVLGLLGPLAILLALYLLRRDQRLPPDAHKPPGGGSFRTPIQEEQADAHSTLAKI
Description: as §1

[5] = target: T5, R80A; assay: as above
T5 construct: also called human OX40 alanine mutant R80A on 1624-5 cells
T5 receptor chain: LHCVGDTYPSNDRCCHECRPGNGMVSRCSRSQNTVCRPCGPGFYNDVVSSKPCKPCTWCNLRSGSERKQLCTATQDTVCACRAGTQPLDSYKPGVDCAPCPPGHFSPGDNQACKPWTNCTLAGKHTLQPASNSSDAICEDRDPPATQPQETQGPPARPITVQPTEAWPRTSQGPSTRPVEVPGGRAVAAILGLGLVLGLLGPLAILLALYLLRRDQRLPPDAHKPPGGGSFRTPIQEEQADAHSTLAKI
Description: as §1

[6] = target: T6, P99A; assay: as above
T6 construct: also called human OX40 alanine mutant P99A on 1624-5 cells
T6 receptor chain: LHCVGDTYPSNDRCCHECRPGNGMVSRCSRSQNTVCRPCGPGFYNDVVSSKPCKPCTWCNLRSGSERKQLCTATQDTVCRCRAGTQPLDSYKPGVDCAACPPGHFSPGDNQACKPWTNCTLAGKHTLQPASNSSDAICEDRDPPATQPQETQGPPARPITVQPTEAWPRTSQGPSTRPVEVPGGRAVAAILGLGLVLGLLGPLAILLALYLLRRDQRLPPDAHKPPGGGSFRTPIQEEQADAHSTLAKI
Description: as §1

[7] = target: T7, P93A; assay: as above
T7 construct: also called human OX40 alanine mutant P93A on 1624-5 cells
T7 receptor chain: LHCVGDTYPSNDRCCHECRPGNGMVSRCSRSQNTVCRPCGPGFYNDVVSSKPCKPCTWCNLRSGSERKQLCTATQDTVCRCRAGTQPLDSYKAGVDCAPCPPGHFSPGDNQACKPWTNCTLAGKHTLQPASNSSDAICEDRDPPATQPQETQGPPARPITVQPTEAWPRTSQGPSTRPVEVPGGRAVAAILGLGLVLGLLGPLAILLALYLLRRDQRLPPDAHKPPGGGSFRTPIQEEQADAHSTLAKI
Description: as §1

[8] = target: T8, P115A; assay: as above
T8 construct: also called human OX40 alanine mutant P115A on 1624-5 cells
T8 receptor chain: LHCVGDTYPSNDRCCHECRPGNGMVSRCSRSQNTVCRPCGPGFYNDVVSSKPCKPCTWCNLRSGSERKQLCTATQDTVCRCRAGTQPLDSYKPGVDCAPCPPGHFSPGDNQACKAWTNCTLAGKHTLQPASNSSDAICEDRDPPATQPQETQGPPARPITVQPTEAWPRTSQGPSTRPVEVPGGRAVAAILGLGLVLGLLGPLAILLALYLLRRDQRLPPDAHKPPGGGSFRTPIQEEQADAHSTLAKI
Description: as §1

[9] = target: T9, R62A; assay: as above
T9 construct: also called human OX40 alanine mutant R62A on 1624-5 cells
T9 receptor chain: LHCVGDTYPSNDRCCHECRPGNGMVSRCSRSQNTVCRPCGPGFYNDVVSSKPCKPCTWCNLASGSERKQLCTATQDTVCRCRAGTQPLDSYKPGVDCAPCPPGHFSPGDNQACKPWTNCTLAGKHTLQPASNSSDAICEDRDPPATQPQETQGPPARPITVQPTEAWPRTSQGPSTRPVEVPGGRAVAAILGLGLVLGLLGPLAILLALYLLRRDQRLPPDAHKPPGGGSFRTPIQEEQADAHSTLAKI
Description: as §1

| Binder | EC50 (read off the curve) [1] | binding result [2] | binding result [3] | binding result [4] | binding result [5] | binding result [6] | binding result [7] | binding result [8] | binding result [9] |
| --- | --- | --- | --- | --- | --- | --- | --- | --- | --- |
| pab2193-1 (antibody, human IgG2, kappa) heavy: EVQLVESGGGLVQPGGSLKLSCAASGFTFSGSAMHWVRQASGKGLEWVGRIRSKANSYATAYAASVKGRFTISRDDSKNTAYLQMNSLKTEDTAVYYCTSGIYDSSGYDYWGQGTLVTVSSASTKGPSVFPLAPCSRSTSESTAALGCLVKDYFPEPVTVSWNSGALTSGVHTFPAVLQSSGLYSLSSVVTVPSSNFGTQTYTCNVDHKPSNTKVDKTVERKCCVECPPCPAPPVAGPSVFLFPPKPKDTLMISRTPEVTCVVVDVSHEDPEVQFNWYVDGVEVHNAKTKPREEQFNSTFRVVSVLTVVHQDWLNGKEYKCKVSNKGLPAPIEKTISKTKGQPREPQVYTLPPSREEMTKNQVSLTCLVKGFYPSDIAVEWESNGQPENNYKTTPPMLDSDGSFFLYSKLTVDKSRWQQGNVFSCSVMHEALHNHYTQKSLSLSPG light: not shown | ~1 nM |  |  |  |  |  |  |  |  |
| pab1928 (antibody, human IgG1, V domains shown, also called made from the variable regions of Hu106-122 (US 2013/0280275)) VH: QVQLVQSGSELKKPGASVKVSCKASGYTFTDYSMHWVRQAPGQGLKWMGWINTETGEPTYADDFKGRFVFSLDTSVSTAYLQISSLKAEDTAVYYCANPYYDYVSYYAMDYWGQGTTVTVSS VL: DIQMTQSPSSLSASVGDRVTITCKASQDVSTAVAWYQQKPGKAPKLLIYSASYLYTGVPSRFSGSGSGTDFTFTISSLQPEDIATYYCQQHYSTPRTFGQGTKLEIKR |  | no binding (tested: 1.1 µg/ml) | binds | binds | binds | binds | binds | binds | binds |
